B1: Receptor-type tyrosine-protein phosphatase R (Homo sapiens), Q15256 (parent)
chain: MRRAVCFPALCLLLNLHAAGCFSGNNDHFLAINQKKSGKPVFIYKHSQDIEKSLDIAPQKIYRHSYHSSSEAQVSKRHQIVNSAFPRPAYDPSLNLLAMDGQDLEVENLPIPAANVIVVTLQMDVNKLNITLLRIFRQGVAAALGLLPQQVHINRLIGKKNSIELFVSPINRKTGISDALPSEEVLRSLNINVLHQSLSQFGITEVSPEKNVLQGQHEADKIWSKEGFYAVVIFLSIFVIIVTCLMILYRLKERFQLSLRQDKEKNQEIHLSPITLQPALSEAKTVHSMVQPEQAPKVLNVVVDPQGRGAPEIKATTATSVCPSPFKMKPIGLQERRGSNVSLTLDMSSLGNIEPFVSIPTPREKVAMEYLQSASRILTRSQLRDVVASSHLLQSEFMEIPMNFVDPKEIDIPRHGTKNRYKTILPNPLSRVCLRPKNVTDSLSTYINANYIRGYSGKEKAFIATQGPMINTVDDFWQMVWQEDSPVIVMITKLKEKNEKCVLYWPEKRGIYGKVEVLVISVNECDNYTIRNLVLKQGSHTQHVKHYWYTSWPDHKTPDSAQPLLQLMLDVEEDRLASQGRGPVVVHCSAGIGRTGCFIATSIGCQQLKEEGVVDALSIVCQLRMDRGGMVQTSEQYEFVHHALCLYESRLSAETVQ

Variants of: B1
Settings: with mk14_human MAPK14, Q16539
Chain of mk14_human MAPK14, Q16539 (Q16539 whole entry): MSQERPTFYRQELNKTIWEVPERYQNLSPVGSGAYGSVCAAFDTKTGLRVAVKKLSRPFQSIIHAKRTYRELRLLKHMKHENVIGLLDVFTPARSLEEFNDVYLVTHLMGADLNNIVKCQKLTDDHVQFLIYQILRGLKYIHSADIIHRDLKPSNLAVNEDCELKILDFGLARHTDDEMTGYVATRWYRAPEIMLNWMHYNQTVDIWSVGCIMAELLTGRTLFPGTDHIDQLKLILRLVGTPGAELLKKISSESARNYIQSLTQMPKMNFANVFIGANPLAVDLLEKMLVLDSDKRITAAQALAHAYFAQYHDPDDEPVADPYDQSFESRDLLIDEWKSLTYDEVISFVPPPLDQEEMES

effect of a mutation on the interaction | Variant
disrupting interaction | S339E

From IntAct's records for PubMed 10601328
